Measurements as given in patent publication US6953794.

Molecular target: truncated core tau unit terminating at Ala-390 (human) (UniProt P10636)
Test: ELISA tau-tau binding assay; core tau unit in the solid phase, full-length tau in the aqueous phase

Chain of truncated core tau unit terminating at Ala-390 (human) (P10636 614-707 limits assumed): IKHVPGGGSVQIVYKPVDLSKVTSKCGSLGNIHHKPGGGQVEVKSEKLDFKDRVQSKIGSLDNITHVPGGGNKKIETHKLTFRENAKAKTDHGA

normal full-length tau protein (the particular tau species/isoform tested)
Kd: 8 to 25 nM
